No end group written: not given here.
B1: v6Pep-1 (peptide)
peptide: CNLNTIDTC
modifications: cysteine pairing not given here; also: FITC-labelled or biotinylated, site of label not given here
notes: Selected from a CX7C phage display library; also called clone-1; FITC-v6Pep-1
B2: v6Pep-2 (peptide)
peptide: CNEWQLKSC
modifications: cysteine pairing not given here; also: FITC-labelled or biotinylated, site of label not given here
notes: Selected from a CX7C phage display library; also called clone-2; FITC-v6Pep-2

Target: T1, wild-type CD44 (UniProt P16070-12 21-361, limits assumed)
T1 construct: The isoform is not defined beyond 'wild-type'
T1 sequence (P16070 other isoform, or with tags, fused parts or gaps limits assumed): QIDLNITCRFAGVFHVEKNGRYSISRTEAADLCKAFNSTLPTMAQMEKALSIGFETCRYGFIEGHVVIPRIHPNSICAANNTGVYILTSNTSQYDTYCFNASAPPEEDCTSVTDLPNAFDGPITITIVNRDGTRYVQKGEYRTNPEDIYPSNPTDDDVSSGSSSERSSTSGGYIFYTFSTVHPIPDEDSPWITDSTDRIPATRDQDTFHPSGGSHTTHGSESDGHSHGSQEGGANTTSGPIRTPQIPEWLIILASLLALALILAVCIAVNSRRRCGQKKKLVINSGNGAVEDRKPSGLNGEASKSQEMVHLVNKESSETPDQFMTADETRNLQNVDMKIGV
Test: pull-down of cell lysate with biotinylated peptide on avidin beads, Western blot

Binder | binding result
B1 | no binding
B2 | no binding

— patent publication US20210163535A1 (KYUNGPOOK NATIONAL UNIVERSITY INDUSTRY ACADEMIC COOPERATION …, published 2021)
